According to article PMC11022072:

Target: bovine lactoferrin (Lf) (bovine)
Test: […]; 20 mM HEPES pH 7.4, 150 mM NaCl

Work on “C-terminal α-helical domain (CaHD) of Moraxella bovis LbpB (domain or fragment)” yielded a stoichiometry N of 1.
